In US20200157542, “Bispecific Aptamer for Treating Cancer” (Augusta University Research Institute, Inc., published 2020):

What was measured:
[1] = molecular target: human serum albumin (HSA) (human, UniProt P02768 P02768:25-609); test: ELONA; immobilized HSA control, no positive signal; conditions: label: 3'-Cy5 on EpCAM strand for flow cytometry; two aptamers joined by 23 bp dsRNA adaptor with 2-3 unpaired base linkers
EpCAM = molecular target: T1, EpCAM (human, UniProt P16422 P16422:24-265); test: ELONA; bridging of 1 uM free EpCAM to plate-immobilized CD44; simple mixture of the two aptamers gave background only; conditions: tags: Thermo Fisher Scientific; label: 3'-Cy5 on EpCAM strand for flow cytometry; two aptamers joined by 23 bp dsRNA adaptor with 2-3 unpaired base linkers
T1 sequence: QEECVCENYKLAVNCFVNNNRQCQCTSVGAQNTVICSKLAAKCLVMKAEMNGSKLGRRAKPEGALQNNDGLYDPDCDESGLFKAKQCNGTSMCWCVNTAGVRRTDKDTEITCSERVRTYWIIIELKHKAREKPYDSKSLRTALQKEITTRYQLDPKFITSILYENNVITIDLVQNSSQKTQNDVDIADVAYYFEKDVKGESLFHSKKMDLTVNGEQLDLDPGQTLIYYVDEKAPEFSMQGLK
Experimental: Serially diluted recombinant human CD44 protein (0-500 nM) was loaded into 96-well microtiter plates at 50 μg/well in triplicates and incubated overnight at 4° C. Plates were further blocked with 5% BSA/sperm DNA (500 μg/ml)/yeast tRNA (500 μg/ml)/0.05% Tween-20 in PBS/T buffer overnight. CD44-EpCAM conjugates or simply mixed CD44 and EpCAM aptamers were incubated with 1 μM recombinant human EpCAM for 4 h at room temperature. For simply mixed CD44 and EpCAM, prior putting CD44 and EpCAM aptamers together, CD44 aptamer was blocked with ssDNA (5′-[…]-3′) (SEQ ID NO: 11). […] Detection of HRP was performed by incubating with 100 µL/well soluble Turbo TMB-ELISA substrate for 5 min, then reaction was quenched with 100 μl/well Stop solution and the absorbance at 450 nm was measured using TECAN Infinite M 200 plate reader.
The binding of bispecific CD44-EpCAM aptamer was examined by ELISA (FIG. 1B). […] As expected (FIG. 1C), CD44-EpCAM bispecific aptamers successfully linked to plate-immobilized CD44 protein and free EpCAM proteins, yielding CD44 protein concentration-dependent positive signals, whereas only the background signal was detected in a control experiment with a simple mixture of CD44 aptamer and EpCAM aptamer. […]

Sequence of human serum albumin (HSA) (P02768 25-609, one chain of several): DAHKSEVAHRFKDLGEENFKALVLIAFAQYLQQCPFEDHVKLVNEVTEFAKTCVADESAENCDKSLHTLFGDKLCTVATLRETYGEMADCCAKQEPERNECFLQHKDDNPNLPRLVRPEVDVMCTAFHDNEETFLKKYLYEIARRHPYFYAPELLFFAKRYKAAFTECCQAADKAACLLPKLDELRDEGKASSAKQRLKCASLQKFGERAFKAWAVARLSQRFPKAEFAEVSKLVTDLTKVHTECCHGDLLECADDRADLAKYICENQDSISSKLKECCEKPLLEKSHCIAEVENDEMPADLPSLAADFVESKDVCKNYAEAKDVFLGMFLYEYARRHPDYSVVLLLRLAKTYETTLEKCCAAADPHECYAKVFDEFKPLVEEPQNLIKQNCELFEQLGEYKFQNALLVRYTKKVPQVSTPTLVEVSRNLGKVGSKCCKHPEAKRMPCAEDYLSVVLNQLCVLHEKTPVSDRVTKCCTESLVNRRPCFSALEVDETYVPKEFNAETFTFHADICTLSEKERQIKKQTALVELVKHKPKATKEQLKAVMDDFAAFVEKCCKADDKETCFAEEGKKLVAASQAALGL

B1: CD44-EpCAM bispecific aptamer (ssRNA)
RNA 1: GGGAUGGAUCCAAGCUUACUGGCAUCUGGAUUUGCGCGUGCCAGAAUAAAGAGUAUAACGUGUGAAUGGGAAGCUUCGAUAGGAAUUCGGAAAAGCUUGUUCAGGAGAUGAAAUU
RNA 2: GCGACUGGUUACCCGGUCGUAAAAUUUCAUCUCCUGAACAAGCUU
modifications: RNA (U for T in printed DNA template), 2'-F pyrimidines throughout
[1]
  binding result: no binding
EpCAM
  binding result: binds
